From patent publication US20210079074A1 come the findings set out here.

Experiment [1] deals with FcγRIIa receptor (H131 variant) (UniProt P12318). The experiment is described as follows: cell-based or functional assay.
Experiment [2] deals with FcγRIIIa receptor (V158 variant) (UniProt P08637). The experiment is described as follows: cell-based or functional assay.
FcγRIIIa receptor (V158 variant), sequence (P08637 other isoform, or with tags, fused parts or gaps mutant limits assumed): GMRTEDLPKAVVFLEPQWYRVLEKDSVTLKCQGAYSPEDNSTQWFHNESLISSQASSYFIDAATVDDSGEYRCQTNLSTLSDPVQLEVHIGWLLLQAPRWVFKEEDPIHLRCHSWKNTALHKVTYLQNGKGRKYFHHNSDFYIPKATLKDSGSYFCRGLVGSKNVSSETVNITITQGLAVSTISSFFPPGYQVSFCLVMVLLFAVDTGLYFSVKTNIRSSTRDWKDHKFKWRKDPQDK

FcγRIIa receptor (H131 variant), sequence (P12318 34-317 limits assumed, change not shown): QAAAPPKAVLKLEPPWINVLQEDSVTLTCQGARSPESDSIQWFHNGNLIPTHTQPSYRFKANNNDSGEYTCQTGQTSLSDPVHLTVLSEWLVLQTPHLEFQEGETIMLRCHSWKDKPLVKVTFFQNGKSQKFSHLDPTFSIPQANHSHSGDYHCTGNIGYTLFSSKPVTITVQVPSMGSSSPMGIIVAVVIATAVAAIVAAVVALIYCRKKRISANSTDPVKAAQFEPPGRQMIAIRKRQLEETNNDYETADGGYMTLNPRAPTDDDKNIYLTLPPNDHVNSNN

In experiment [1], isotype control antibody showed a luminescence, ADCP reporter, 3.048316 ng/mL of 45; a luminescence, ADCP reporter, 9.144947 ng/mL of 52; a luminescence, ADCP reporter, 27.43484 ng/mL of 42; a luminescence, ADCP reporter, 82.30453 ng/mL of 41. Further, in experiment [1], the luminescence, ADCP reporter, 246.9136 ng/mL worked out at 54; the luminescence, ADCP reporter, 740.7407 ng/mL was found to be 60; the luminescence, ADCP reporter, 2,222.222 ng/mL worked out at 57; the luminescence, ADCP reporter, 6,666.667 ng/mL worked out at 49. Further, the luminescence, ADCP reporter, 20,000 ng/mL in experiment [1] is 83. In experiment [2], this substance displayed a luminescence, ADCC reporter, 3.048316 ng/mL of 314; a luminescence, ADCC reporter, 9.144947 ng/mL of 329; a luminescence, ADCC reporter, 27.43484 ng/mL of 340; a luminescence, ADCC reporter, 82.30453 ng/mL of 377. For the same substance, in experiment [2], the luminescence, ADCC reporter, 246.9136 ng/mL was found to be 381; the luminescence, ADCC reporter, 740.7407 ng/mL turned out to be 379; the luminescence, ADCC reporter, 2,222.222 ng/mL came out at 373; the luminescence, ADCC reporter, 6,666.667 ng/mL amounted to 431. The substance further came in with a luminescence, ADCC reporter, 20,000 ng/mL in experiment [2] of 399.
